Test results: patent publication US20240076389A1 (NATIONAL RESEARCH COUNCIL OF CANADA, published 2024)

Columns and labels:
[1] = biological target: T1, human AXL expressed on the cell surface of tumor cell lines (human, UniProt P30530 26-894); experiment: cell-based or functional assay
T1 sequence (looked up): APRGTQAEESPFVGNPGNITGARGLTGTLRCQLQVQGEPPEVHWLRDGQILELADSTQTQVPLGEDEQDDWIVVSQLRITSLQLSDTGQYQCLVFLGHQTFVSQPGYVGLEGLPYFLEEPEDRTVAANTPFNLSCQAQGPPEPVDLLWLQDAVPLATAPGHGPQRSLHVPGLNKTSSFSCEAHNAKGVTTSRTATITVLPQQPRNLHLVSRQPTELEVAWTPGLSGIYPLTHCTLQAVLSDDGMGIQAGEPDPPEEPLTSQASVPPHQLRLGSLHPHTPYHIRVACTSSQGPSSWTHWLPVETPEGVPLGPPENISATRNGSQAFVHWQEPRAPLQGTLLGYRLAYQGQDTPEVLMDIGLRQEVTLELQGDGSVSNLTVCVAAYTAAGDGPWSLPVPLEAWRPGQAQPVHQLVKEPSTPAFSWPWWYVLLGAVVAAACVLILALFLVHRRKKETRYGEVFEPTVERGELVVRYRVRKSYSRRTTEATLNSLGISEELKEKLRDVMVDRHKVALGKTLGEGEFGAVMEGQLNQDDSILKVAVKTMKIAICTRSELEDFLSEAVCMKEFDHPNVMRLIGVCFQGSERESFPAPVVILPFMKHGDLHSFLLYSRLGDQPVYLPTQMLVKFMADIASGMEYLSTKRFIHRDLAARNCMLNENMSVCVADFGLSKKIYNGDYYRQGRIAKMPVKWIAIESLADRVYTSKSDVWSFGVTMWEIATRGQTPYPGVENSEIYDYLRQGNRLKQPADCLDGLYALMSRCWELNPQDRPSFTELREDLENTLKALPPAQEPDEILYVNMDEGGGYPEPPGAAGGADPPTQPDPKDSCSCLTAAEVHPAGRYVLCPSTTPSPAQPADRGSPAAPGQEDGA

[2] = biological target: T1, human AXL expressed on the cell surface …; experiment: cell-based or functional assay; remark: listed apart in the source
[3] = biological target: T1, human AXL expressed on the cell surface …; experiment: FACS on SKOV3 cells, apparent Kd, human Fc format
Method: (§1) FACS binding assay. Adherent cells were dissociated with non-enzymatic Sigma Cell Dissociation Solution (Cat. No. C5789). Cells suspensions were added to polypropylene, V-bottom 96-well plates and incubated for 2 hours on ice with primary antibodies at concentrations ranging from 100 nM to 0.001 nM or at a single dose of 100 nM (for the non-specific control). After incubation and washes, cells were incubated with fluorescently labeled secondary antibody (Alexa Fluor® 488 anti-human IgG from Jackson Cat. No 709-546-098) for 1 hour on ice, then washed. Cell viability was determined using Fixable viability dye 450 (20 min on ice). Stained cells were fixed in 1% formaldehyde at 4° C. and stored at 4° C. until acquisition which was performed the next day.
(§2) Binding of recombinant chimeric Abs to three cell lines was assessed by FACS as described above. The apparent Bmax and Kd determination is shown below in Table 14.

[4] = biological target: T2, mouse AXL extracellular domain (Sino cat. 51026-M08H) (mouse, UniProt Q00993 19-445); experiment: ELISA on coated mouse AXL ECD (100 ng/well), VHH-Fc
T2 construct: extracellular domain; Bought protein; also called mouse AXL ECD
T2 sequence (looked up): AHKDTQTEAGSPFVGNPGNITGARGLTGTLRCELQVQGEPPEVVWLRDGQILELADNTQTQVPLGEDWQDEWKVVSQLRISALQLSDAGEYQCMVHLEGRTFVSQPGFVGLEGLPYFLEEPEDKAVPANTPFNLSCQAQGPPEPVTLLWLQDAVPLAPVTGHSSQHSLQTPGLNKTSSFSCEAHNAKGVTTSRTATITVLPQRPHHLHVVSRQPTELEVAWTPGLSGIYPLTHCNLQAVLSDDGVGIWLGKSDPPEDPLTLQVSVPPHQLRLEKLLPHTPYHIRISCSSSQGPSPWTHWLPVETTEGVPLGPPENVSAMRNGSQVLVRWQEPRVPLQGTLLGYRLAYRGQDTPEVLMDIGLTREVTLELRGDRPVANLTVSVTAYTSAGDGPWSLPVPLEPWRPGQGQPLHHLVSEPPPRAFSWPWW
Method: (§3) ELISA. ELISAs against human, cyno and mouse AXL ECDs were conducted by immobilizing 100 ng of each protein in wells of Nunc MaxiSorp microplates overnight. Human AXL (aa 1-451) and cyno AXL (aa 1-449) were produced recombinantly as described in Example 10. Mouse AXL was purchased from Sino (cat. 51026-M08H). The next day, plates were blocked with 5% (w/v) dried milk in PBS. Murine mAbs (either hybridoma- or recombinantly-produced) or VHH-Fcs were diluted in PBS containing 1% BSA and 0.1% Tween-20 and added to wells for 2 hours at room temperature. Wells were washed 5× with PBS containing 0.1% Tween-20, then HRP-labeled protein A (diluted 1:1000 in PBS containing 1% BSA and 0.1% Tween™-20) was added to wells for 1 hour at room temperature. Wells were washed again 5× with PBS/0.1% Tween-20 and developed using TMB substrate. Absorbance was measured at 450 nm. As a positive control for mouse AXL binding, a commercial anti-mouse AXL mAb (clone 175128, R&D Systems MAB8541, rat IgG2A) was used and detected with donkey […] secondary antibody.

[5] = biological target: T1, human AXL expressed on the cell surface …; experiment: FACS on NCI-H292 cells, apparent Kd, human Fc format
Method: as §1, §2

[6] = biological target: T3, recombinant human AXL extracellular domain, C-terminally His8-tagged (rhAXL-ECD) (human, UniProt P30530 26-451); experiment: SPR, VHH-Fc captured, AXL ECD flowed, single-cycle kinetics
T3 construct: Made in CHO cells; also called (rh)AXL-ECD His8; human AXL ECD
T3 sequence: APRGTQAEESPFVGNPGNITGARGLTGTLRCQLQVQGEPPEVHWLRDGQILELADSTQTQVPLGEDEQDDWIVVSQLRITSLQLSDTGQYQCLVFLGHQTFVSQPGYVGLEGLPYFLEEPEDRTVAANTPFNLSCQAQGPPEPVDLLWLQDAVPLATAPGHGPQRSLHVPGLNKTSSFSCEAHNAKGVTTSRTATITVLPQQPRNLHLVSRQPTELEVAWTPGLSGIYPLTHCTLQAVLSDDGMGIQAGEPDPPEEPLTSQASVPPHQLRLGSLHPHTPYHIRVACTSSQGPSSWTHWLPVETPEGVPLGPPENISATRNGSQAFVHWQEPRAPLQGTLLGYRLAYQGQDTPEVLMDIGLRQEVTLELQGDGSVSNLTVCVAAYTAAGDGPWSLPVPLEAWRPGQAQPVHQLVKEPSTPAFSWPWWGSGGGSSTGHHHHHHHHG
Method: (§4) For VH Hs and VHH-Fcs, binding to human and cynomolgus AXL ECD was assessed using either a Biacore T200 instrument or a Biacore 3000 instrument. Either human AXL ECD or anti-human Fc antibody was immobilized on a research-grade CM5 series S sensor chip (T200, rhAXL ECD) or a C1 sensor chip (3000, anti-human Fc) using amine coupling in acetate buffer. VHH-Fcs were captured on anti-human Fc surfaces. Either monomeric VHHs (for rhAXL ECD surfaces) or human and cyno AXL ECD (for VHH-Fc surfaces) were flowed over the surfaces at different concentration ranges. Running buffers were HBS-EP (3000) and HBS-EP+(T200). Flow rates were 10-40 ul/min. All binding studies were performed at 25° C. Surfaces were regenerated using 10 mM glycine, pH 1.5.

[7] = biological target: T3, recombinant human AXL extracellular …; experiment: ELISA on coated AXL ECD (100 ng/well), VHH-Fc, HRP-protein A
Method: as §3

[8] = biological target: T1, human AXL expressed on the cell surface …; experiment: FACS on MDA-MB-231 luciferase cells, apparent Kd, human Fc format
Method: as §1, §2

[9] = biological target: T3, recombinant human AXL extracellular …; experiment: SPR, VHH-Fc captured, AXL ECD flowed, single-concentration kinetics (estimate)
Method: as §4

[10] = biological target: T4, cyAXL-ECD displayed on yeast; experiment: yeast surface display ELISA, non-denatured yeast, goat anti-human F(ab')2-HRP
T4 construct: extracellular domain; 'cy' read as cynomolgus

[11] = biological target: T5, huMER-ECD displayed on yeast (human, UniProt Q12866 21-505); experiment: as above
T5 construct: extracellular domain
T5 sequence (looked up): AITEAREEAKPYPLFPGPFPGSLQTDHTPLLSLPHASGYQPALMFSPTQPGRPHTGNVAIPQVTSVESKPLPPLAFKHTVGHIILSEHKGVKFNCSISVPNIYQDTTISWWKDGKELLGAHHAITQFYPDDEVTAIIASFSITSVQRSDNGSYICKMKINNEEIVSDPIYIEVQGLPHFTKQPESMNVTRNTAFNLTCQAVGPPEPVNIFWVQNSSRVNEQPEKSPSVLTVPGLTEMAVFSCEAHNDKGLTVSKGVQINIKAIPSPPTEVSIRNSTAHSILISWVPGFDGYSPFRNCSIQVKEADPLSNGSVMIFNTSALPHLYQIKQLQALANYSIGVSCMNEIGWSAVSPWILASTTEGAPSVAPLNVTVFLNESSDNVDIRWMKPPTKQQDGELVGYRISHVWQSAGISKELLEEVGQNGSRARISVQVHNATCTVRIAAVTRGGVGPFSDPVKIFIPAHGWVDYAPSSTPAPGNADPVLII

[12] = biological target: T6, huTyro3-ECD displayed on yeast (human, UniProt Q06418 41-429); experiment: as above
T6 construct: extracellular domain
T6 sequence (looked up): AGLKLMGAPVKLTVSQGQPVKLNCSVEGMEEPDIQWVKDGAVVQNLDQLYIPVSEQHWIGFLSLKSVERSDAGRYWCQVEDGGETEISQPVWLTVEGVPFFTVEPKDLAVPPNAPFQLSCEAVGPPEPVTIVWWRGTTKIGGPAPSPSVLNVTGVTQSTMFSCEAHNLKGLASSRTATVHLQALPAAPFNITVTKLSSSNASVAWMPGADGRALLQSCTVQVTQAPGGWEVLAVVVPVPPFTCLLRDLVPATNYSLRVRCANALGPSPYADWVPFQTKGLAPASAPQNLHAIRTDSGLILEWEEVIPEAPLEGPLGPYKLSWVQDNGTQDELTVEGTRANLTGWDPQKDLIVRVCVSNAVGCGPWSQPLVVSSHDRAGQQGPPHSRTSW

B1: hFc-F107-10G1-DM1 (antibody, human IgG1, kappa, V domains shown)
VH: EVNLVESGGGVVKPGASLKLSCEASGFTFSNYGMSWVRQTSDKRLEWVASISGGGGRTYYLDNVKGRFIISRENAKNTLYLQMSSLKSEDTALFYCARGARASYFAMDYWGQGSSVTVSS
VL: VIVMTQSHKFMSTSVGDRVSITCKASQDVTTAVAWYQQKPGQSPKLLIYWASTRHTGVPDRFTGSGSGTDYSLTISNVQTEDLAFYYCQQHFTTPLTFGAGTKLELKR
modifications: DM1 through SMCC linker on lysine residues; sites not given
- IC50 of growth inhibition (CellTiterGlo, 5 days) of NCI-H292 cells, -Gas6 [1]: 0.013 nM
- IC50 of growth inhibition of NCI-H292 cells, +Gas6 (2 µg/mL) [1]: 0.46 nM
- IC50 (read off the curve), growth inhibition of H292 cells, without added Gas6 (circles) [2]: ~0.004 nM

B2: NRC-sdAb008-Fc (VHH-human IgG1 Fc fusion) (Fc fusion)
chain: QVKLEESGGGLVQAGGSLRLSCAASGSSGMINTMGWYRQAPGKQRELVARRSTGGTTNYADSVKGRFTISRDDANNTVYLQMNSLKPEDTAVYYCAIIWRTSDLTGRFNTWGQGTQVTVSS
notes: VHH fused N-terminally to human IgG1 Fc; also called NRC-sdAb008-hIgG1; not shown: human IgG1 Fc
- Kd [3]: 0.0549 nM
- binding result [4]: no binding
- Kd [5]: 0.0414 nM
- Kd [6]: 1 nM
- koff [6]: 0.0033 s⁻¹
- kon [6]: 3.3e+06 M⁻¹ s⁻¹
- EC50 [7]: 1 nM
- Kd [8]: 0.122 nM
- Kd [9]: 2 nM
- koff [9]: 0.0082 s⁻¹
- kon [9]: 5.3e+06 M⁻¹ s⁻¹

B3: NRC-sdAb002-Fc (VHH-human IgG1 Fc fusion) (Fc fusion)
chain: QVQLVDSGGGLVQAGGSLRLSCATSTRTVSSAVMAWFRQAPEKVRDFVGFITNSGNILYDDSVKGRFTISRDNAQNTVYLQMNSLKPEDTAVYYCAAKWSFSSGYGDLRRAAMYDYWGQGTQVTVSS
notes: VHH fused N-terminally to human IgG1 Fc; also called NRC-sdAb0002-Fc; NRC-sdAb002-hIgG1; not shown: human IgG1 Fc
- yeast ELISA signal normalized to myc expression level [10]: 0.76
- yeast ELISA signal normalized to myc expression level [11]: 0.01

B4: NRC-sdAb003-Fc (VHH-human IgG1 Fc fusion) (Fc fusion)
chain: QVQLVESGGGLVQAGGSLRLSCAASGVTLDYTAIGWFRQAPGKERELVAAITSGGNTDYAESAKGRFRISRDNSKNTIYLQMNSLKPEDTGVYYCAARRGGARGEYDYWDQGTQVTVSS
notes: VHH fused N-terminally to human IgG1 Fc; also called NRC-sdAb0003-Fc; NRC-sdAb003-hIgG1; not shown: human IgG1 Fc
- yeast ELISA signal normalized to myc expression level [10]: 0.668
- yeast ELISA signal normalized to myc expression level [11]: -0.009
- yeast ELISA signal normalized to myc expression level [12]: -0.005
